Results taken from patent publication US20090028788A1 (WASHINGTON UNIVERSITY IN ST LOUIS, published 2009).
Bridges are numbered along the chain shown (N, C = ends). Primed or numbered codes have the meaning given here. [ ]: non-standard residue; d: D form. The star is where a group is joined. Cypate = CC1(C)C(/C=C/C=C/C=C/C=C2/N(CCC(=O)*)c3ccc4ccccc4c3C2(C)C)=[N+](CCC(=O)O)c2ccc3ccccc3c21; DOTA = O=C(O)CN1CCN(CC(=O)O)CCN(CC(=O)*)CCN(CC(=O)O)CC1; DTPA = O=C(O)CN(CCN(CC(=O)O)CC(=O)O)CCN(CC(=O)O)CC(=O)*; Cypate′ = NIR carbocyanine dye; Ahx = NCCCCCC(=O)O; βAla = NCCC(=O)O

Target: T1, purified human αvβ3 integrin protein (human, UniProt P06756 31-1048; P05106 27-788)
T1 construct: Bought heterodimer; also called ABI; purified αvβ3 integrin
Assay: competition with 125I-echistatin on purified human αvβ3 integrin, filter plate;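 further: test ligands incubated two hours at room temperature with the integrin, bound radioactivity retained on filters measured by gamma counting, IC50 obtained through nonlinear regression fitting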
Experimental: The binding affinities were measured based on the competitive binding between purified αᵥβ₃ integrin (ABI) and peptide ligands.
Receptor binding assays were performed by using purified human αᵥβ₃ integrin protein from Chemicon International, Inc. (Temecula, Calif.). Assays were carried out using the Millipore Duropore membrane 96-well plates and the Millipore MultiScreen system (Bedford, Mass.). […] The concentration range of ligand was between 0.01 μM and 100 μM. The mixtures were incubated for 2 h at room temperature, the ABI was then filtered by centrifugation at 1500 g and washed three times with 0.20 mL of ice-cold binding buffer. The filters containing radioactivity bound ABI were removed using a punch apparatus and counted using a Packard Cobra II Auto-gamma counter (Meriden, Conn.). […] The 50% inhibitory concentrations (IC₅₀) were calculated by nonlinear regression analysis by use of the GraphPad Prism 4 computer fitting program (GraphPad Software, Inc., San Diego, Calif.).

T1 sequence (P06756 31-1048, form in doubt, chain 1 of 2): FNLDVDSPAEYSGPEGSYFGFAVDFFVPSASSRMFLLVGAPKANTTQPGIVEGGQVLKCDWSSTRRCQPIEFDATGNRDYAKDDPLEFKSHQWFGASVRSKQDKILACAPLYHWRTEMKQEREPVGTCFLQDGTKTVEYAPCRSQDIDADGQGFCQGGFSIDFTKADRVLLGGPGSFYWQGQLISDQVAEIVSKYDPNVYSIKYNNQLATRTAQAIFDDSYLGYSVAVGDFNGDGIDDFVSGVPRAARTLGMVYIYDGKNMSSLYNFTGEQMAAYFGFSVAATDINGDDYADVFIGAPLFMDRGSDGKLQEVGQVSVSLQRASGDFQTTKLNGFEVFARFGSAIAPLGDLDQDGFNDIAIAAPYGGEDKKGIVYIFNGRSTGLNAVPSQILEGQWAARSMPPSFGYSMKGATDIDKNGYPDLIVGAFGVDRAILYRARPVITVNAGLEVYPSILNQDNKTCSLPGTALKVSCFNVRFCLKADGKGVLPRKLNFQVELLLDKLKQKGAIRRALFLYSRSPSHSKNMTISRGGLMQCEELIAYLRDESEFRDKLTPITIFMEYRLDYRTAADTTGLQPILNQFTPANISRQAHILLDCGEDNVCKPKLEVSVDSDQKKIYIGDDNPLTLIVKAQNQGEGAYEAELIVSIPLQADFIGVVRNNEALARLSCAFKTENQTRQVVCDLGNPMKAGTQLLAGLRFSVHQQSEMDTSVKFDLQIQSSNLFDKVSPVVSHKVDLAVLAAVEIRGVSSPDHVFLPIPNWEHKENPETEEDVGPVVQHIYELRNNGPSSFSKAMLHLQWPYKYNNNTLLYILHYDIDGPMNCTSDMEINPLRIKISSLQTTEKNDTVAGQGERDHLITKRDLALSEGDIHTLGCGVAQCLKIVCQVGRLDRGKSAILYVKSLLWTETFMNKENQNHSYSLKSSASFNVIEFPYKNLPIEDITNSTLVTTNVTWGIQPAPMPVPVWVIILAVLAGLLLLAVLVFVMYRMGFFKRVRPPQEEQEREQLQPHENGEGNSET
T1 sequence (P05106 27-788, form in doubt, chain 2 of 2): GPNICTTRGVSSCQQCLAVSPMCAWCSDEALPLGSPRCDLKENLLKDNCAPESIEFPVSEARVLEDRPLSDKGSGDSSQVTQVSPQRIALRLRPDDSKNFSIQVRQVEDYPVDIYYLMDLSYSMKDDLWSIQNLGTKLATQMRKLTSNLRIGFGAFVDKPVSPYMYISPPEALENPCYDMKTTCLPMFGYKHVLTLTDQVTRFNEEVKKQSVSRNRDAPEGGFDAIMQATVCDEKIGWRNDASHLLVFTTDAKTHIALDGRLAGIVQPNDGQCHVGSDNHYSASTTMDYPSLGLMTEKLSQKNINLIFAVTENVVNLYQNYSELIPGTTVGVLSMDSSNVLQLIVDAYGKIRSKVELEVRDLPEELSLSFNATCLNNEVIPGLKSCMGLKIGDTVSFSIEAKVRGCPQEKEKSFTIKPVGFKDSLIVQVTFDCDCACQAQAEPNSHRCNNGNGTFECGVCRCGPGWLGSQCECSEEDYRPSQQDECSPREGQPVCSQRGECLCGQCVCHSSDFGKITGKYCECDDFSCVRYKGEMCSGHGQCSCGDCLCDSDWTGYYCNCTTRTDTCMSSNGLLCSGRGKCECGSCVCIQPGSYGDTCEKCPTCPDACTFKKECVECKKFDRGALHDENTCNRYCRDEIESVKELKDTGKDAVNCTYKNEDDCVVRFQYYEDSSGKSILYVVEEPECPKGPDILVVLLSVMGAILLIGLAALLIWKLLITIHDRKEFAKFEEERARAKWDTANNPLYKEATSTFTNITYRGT

IC50 [nM]	Binder
329	H-[βAla]DCRGDC(Et)FV-OH (SMILES CCSC[C@H](NC(=O)[C@H](CC(=O)O)NC(=O)CNC(=O)[C@H](CCCNC(=N)N)NC(=O)[C@H](CS)NC(=O)[C@H](CC(=O)O)NC(=O)CCN)C(=O)N[C@@H](Cc1ccccc1)C(=O)N[C@H](C(=O)O)C(C)C) [H-B-Ala-Asp-Cys-Arg-Gly-Asp-Cys(Et)-Phe-Val-OH]
694	{DOTA}-RGDSPK-OH [DOTA-Arg-Gly-Asp-Ser-Pro-Lys-OH]
722	XCYXKTCTVRGD (HELM PEPTIDE1{[dF].C.Y.[dW].K.T.C.T.V.R.G.D.[am]}$PEPTIDE1,PEPTIDE1,2:R3-7:R3$$$V2.0; SMILES CC(C)[C@H](NC(=O)[C@@H](NC(=O)[C@@H]1CSSC[C@H](NC(=O)[C@H](N)Cc2ccccc2)C(=O)N[C@@H](Cc2ccc(O)cc2)C(=O)N[C@H](Cc2c[nH]c3ccccc23)C(=O)N[C@@H](CCCCN)C(=O)N[C@@H]([C@@H](C)O)C(=O)N1)[C@@H](C)O)C(=O)N[C@@H](CCCNC(=N)N)C(=O)NCC(=O)N[C@@H](CC(=O)O)C(N)=O) [H-DPhe-Cyclo(Cys-Tyr-DTrp-Lys-Thr-Cys)-Thr-Val-Arg-Gly-Asp-NH2]
1740	RGD[dF]DK-NH2 (lactam N-5; also: cyclo Arg1-Asp5: which Asp5 carboxyl (side chain or α) closes ring not given here) [Cyclo(Arg-Gly-Asp-DPhe-Asp)-Lys-NH2]
1940	RGD[dF]D[Ahx]K-OH (lactam N-5; also: cyclo Arg1-Asp5: which Asp5 carboxyl (side chain or α) closes ring not given here) [Cyclo(Arg-Gly-Asp-DPhe-Asp)-EAhx-Lys-OH]
945	XCYXKTCTVRGDX (HELM PEPTIDE1{[O=C(O)CN(CCN(CC(=O)O)CC(=O)O)CCN(CC(=O)O)CC(=O)[*:2]].[dF].C.Y.[dW].K.T.C.T.V.R.G.D.[dF].[am]}$PEPTIDE1,PEPTIDE1,3:R3-8:R3$$$V2.0; SMILES CC(C)[C@H](NC(=O)[C@@H](NC(=O)[C@@H]1CSSC[C@H](NC(=O)[C@@H](Cc2ccccc2)NC(=O)CN(CCN(CCN(CC(=O)O)CC(=O)O)CC(=O)O)CC(=O)O)C(=O)N[C@@H](Cc2ccc(O)cc2)C(=O)N[C@H](Cc2c[nH]c3ccccc23)C(=O)N[C@@H](CCCCN)C(=O)N[C@@H]([C@@H](C)O)C(=O)N1)[C@@H](C)O)C(=O)N[C@@H](CCCNC(=N)N)C(=O)NCC(=O)N[C@@H](CC(=O)O)C(=O)N[C@H](Cc1ccccc1)C(N)=O) [DTPA-DPhe-Cyclo(Cys-Tyr-DTrp-Lys-Thr-Cys)-Thr-Val-Arg-Gly-Asp-DPhe-NH2]
65.6	{Cypate′}-[βAla]RGD[Ahx]RGD[Ahx]RGDSPK-OH [Cypate-BAla-Arg-Gly-Asp-EAhx-Arg-Gly-Asp-EAhx-Arg-Gly-Asp-Ser-Pro-Lys-OH]
712	{DTPA}-HDC(Et)RGDC(Et)FK-OH (SMILES CCSC[C@H](NC(=O)[C@H](CC(=O)O)NC(=O)CNC(=O)[C@H](CCCNC(=N)N)NC(=O)[C@H](CSCC)NC(=O)[C@H](CC(=O)O)NC(=O)[C@H](Cc1c[nH]cn1)NC(=O)CN(CCN(CCN(CC(=O)O)CC(=O)O)CC(=O)O)CC(=O)O)C(=O)N[C@@H](Cc1ccccc1)C(=O)N[C@@H](CCCCN)C(=O)O) [DTPA-His-Asp-Cys(Et)-Arg-Gly-Asp-Cys(Et)-Phe-Lys-OH]
357	XCYXKTCTVRGDX (HELM PEPTIDE1{[dF].C.Y.[dW].K.T.C.T.V.R.G.D.[dF].[am]}$PEPTIDE1,PEPTIDE1,2:R3-7:R3$$$V2.0; SMILES CC(C)[C@H](NC(=O)[C@@H](NC(=O)[C@@H]1CSSC[C@H](NC(=O)[C@H](N)Cc2ccccc2)C(=O)N[C@@H](Cc2ccc(O)cc2)C(=O)N[C@H](Cc2c[nH]c3ccccc23)C(=O)N[C@@H](CCCCN)C(=O)N[C@@H]([C@@H](C)O)C(=O)N1)[C@@H](C)O)C(=O)N[C@@H](CCCNC(=N)N)C(=O)NCC(=O)N[C@@H](CC(=O)O)C(=O)N[C@H](Cc1ccccc1)C(N)=O) [H-DPhe-Cyclo(Cys-Tyr-DTrp-Lys-Thr-Cys)-Thr-Val-Arg-Gly-Asp-DPhe-NH2]
722	{DOTA}-RGDSPK(Cypate)-NH2 (SMILES CC1(C)C(/C=C/C=C/C=C/C=C2/N(CCC(=O)NCCCC[C@H](NC(=O)[C@@H]3CCCN3C(=O)[C@H](CO)NC(=O)[C@H](CC(=O)O)NC(=O)CNC(=O)[C@H](CCCNC(=N)N)NC(=O)CN3CCN(CC(=O)O)CCN(CC(=O)O)CCN(CC(=O)O)CC3)C(N)=O)c3ccc4ccccc4c3C2(C)C)=[N+](CCC(=O)O)c2ccc3ccccc3c21) [DOTA-Arg-Gly-Asp-Ser-Pro-Lys(Cypate)-NH2]
584	VRGDXCYXKTCT (HELM PEPTIDE1{[O=C(O)CN(CCN(CC(=O)O)CC(=O)O)CCN(CC(=O)O)CC(=O)[*:2]].V.R.G.D.[dF].C.Y.[dW].K.T.C.T.[am]}$PEPTIDE1,PEPTIDE1,7:R3-12:R3$$$V2.0; SMILES CC(C)[C@H](NC(=O)CN(CCN(CCN(CC(=O)O)CC(=O)O)CC(=O)O)CC(=O)O)C(=O)N[C@@H](CCCNC(=N)N)C(=O)NCC(=O)N[C@@H](CC(=O)O)C(=O)N[C@H](Cc1ccccc1)C(=O)N[C@H]1CSSC[C@@H](C(=O)N[C@H](C(N)=O)[C@@H](C)O)NC(=O)[C@H]([C@@H](C)O)NC(=O)[C@H](CCCCN)NC(=O)[C@@H](Cc2c[nH]c3ccccc23)NC(=O)[C@H](Cc2ccc(O)cc2)NC1=O) [DTPA-Val-Arg-Gly-Asp-DPhe-Cyclo(Cys-Tyr-DTrp-Lys-Thr-Cys)-Thr-NH2]
4420	{Cypate′}-[dF]CY[dW]KTCTVRGD-NH2 (disulfide 2-7) [Cypate-DPhe-Cyclo(Cys-Tyr-DTrp-Lys-Thr-Cys)-Thr-Val-Arg-Gly-Asp-NH2]
1000	H-RGDSPK(Cypate)-NH2 [H-Arg-Gly-Asp-Ser-Pro-Lys(Cypate)-NH2]
1110	{DTPA}-[dF]CY[dW]KTCTVRGD-NH2 (disulfide 2-7) [DTPA-DPhe-Cyclo(Cys-Tyr-DTrp-Lys-Thr-Cys)-Thr-Val-Arg-Gly-Asp-NH2]
849	{DTPA}-GRDSPK-OH [DTPA-Gly-Arg-Asp-Ser-Pro-Lys-OH]
411	H-HDRGDCFK-OH [H-His-Asp-Arg-Gly-Asp-Cys-Phe-Lys-OH]
1680	VRGDXCYXKTCT (HELM PEPTIDE1{V.R.G.D.[dF].C.Y.[dW].K.T.C.T.[am]}$PEPTIDE1,PEPTIDE1,6:R3-11:R3$$$V2.0; SMILES CC(C)[C@H](N)C(=O)N[C@@H](CCCNC(=N)N)C(=O)NCC(=O)N[C@@H](CC(=O)O)C(=O)N[C@H](Cc1ccccc1)C(=O)N[C@H]1CSSC[C@@H](C(=O)N[C@H](C(N)=O)[C@@H](C)O)NC(=O)[C@H]([C@@H](C)O)NC(=O)[C@H](CCCCN)NC(=O)[C@@H](Cc2c[nH]c3ccccc23)NC(=O)[C@H](Cc2ccc(O)cc2)NC1=O) [H-Val-Arg-Gly-Asp-DPhe-Cyclo(Cys-Tyr-DTrp-Lys-Thr-Cys)-Thr-NH2]
1890	XVKRGD (HELM PEPTIDE1{[dF].V.K.R.G.D}$PEPTIDE1,PEPTIDE1,1:R1-6:R2$$$V2.0; SMILES CC(C)[C@@H]1NC(=O)[C@@H](Cc2ccccc2)NC(=O)[C@H](CC(=O)O)NC(=O)CNC(=O)[C@H](CCCNC(=N)N)NC(=O)[C@H](CCCCN)NC1=O) [Cyclo(DPhe-Val-Lys-Arg-Gly-Asp)-OH]
353	{DTPA}-GRGDSPK-OH [DTPA-Gly-Arg-Gly-Asp-Ser-Pro-Lys-OH]
3020	{Cypate′}-KRGD[dF][Ahx]-NH2 [Cypate-Lys-Arg-Gly-Asp-DPhe-EAhx-NH2]
